“Also recorded” adds a separate entry of the source. Bridge positions count the residues as written; N and C are the ends. Square brackets hold non-standard residues; d marks the D form. Peptide text beside a SMILES is read from it. * marks the point of attachment. DOTA = O=C(O)CN1CCN(CC(=O)O)CCN(CC(=O)*)CCN(CC(=O)O)CC1; dPhe(4-NHCONH2) = NC(=O)Nc1ccc(C[C@@H](N)C(=O)O)cc1; Dihydroorotyl(S) = O=C1C[C@@H](C(=O)*)NC(=O)N1; Phe(4-Cl) = N[C@@H](Cc1ccc(Cl)cc1)C(=O)O; Phe(4-NH2) = Nc1ccc(C[C@H](N)C(=O)O)cc1
Experiments:
[1] = target: T1, SST2 (AR42J rat pancreatic tumour membranes) (Rattus norvegicus, UniProt P30680); assay: Saturation binding assay on AR42J cell membranes; conditions: AR42J cell membrane suspension 10 µg/well; radioligand 0.075-10 nM; one-site binding model; γ-counter; mean ± SEM
T1 construct: which is not the case for the AR42J model endogenously expressing SST2; host or cells: AR42J rat acinar pancreatic tumour cell line (membrane preparation)
T1 sequence (P30680 whole entry): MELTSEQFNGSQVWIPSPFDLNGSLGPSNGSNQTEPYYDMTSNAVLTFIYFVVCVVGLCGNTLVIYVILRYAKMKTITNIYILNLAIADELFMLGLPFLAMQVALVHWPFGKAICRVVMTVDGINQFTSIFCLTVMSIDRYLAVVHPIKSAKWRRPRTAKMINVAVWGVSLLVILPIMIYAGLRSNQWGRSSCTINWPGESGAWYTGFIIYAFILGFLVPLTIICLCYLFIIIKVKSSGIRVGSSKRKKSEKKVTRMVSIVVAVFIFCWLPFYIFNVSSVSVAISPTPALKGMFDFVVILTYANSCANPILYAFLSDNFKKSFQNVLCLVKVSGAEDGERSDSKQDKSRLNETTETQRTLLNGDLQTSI
Method: The SST2-expressing AR42J, acinar pancreatic tumour cell line derived from a transplantable tumour of a rat exocrine pancreas, was provided by ATCC (LGC Standards, Molsheim, France). Cells were cultured in RPMI 1640 medium (Dutscher, Bernolsheim, France), supplemented with 10% foetal calf serum (PAN-Biotech, Aidenbach, Germany), in a humidified atmosphere at 37 °C with 5% CO2. AR42J membranes were obtained by sonication in 50 mM Tris–HCl, pH 7.4, and centrifugation at 39,000× g for 10 min at 4 °C. The pellet was resuspended in the same buffer and centrifuged at 50,000 ×g for 10 min at 4 °C, and membranes in the resulting pellet were stored at −80 °C until further use.
Saturation binding assays were performed in vitro using AR42J cell membrane suspension (10 µg/well) incubated with increased concentrations (ranging between 0.075 and 10 nM) of the radioligand. […] Membrane-bound radio-peptide was counted in a γ-counter (COBRA 5003, Packard Instruments). The number of binding sites per cell was calculated and fitted to a one-site binding model in GraphPad Prism 8 to determine the dissociation constant (KD) and the number of binding sites (Bmax).

[2] = test system: AR42J pancreatic tumour-bearing mice; assay: In vivo biodistribution (radioactivity uptake in tumour and organs); conditions: for Tumour radioactivity uptake / Femur radioactivity uptake / Spleen radioactivity uptake / Adrenals radioactivity uptake / Kidneys radioactivity uptake / Tail radioactivity uptake: 96 h after fourth injection, mean; for Tumour radioactivity uptake: SST2 expression High; for Femur radioactivity uptake / Spleen radioactivity uptake: SST2 expression Minimal; for Adrenals radioactivity uptake: SST2 expression Moderate; for Kidneys radioactivity uptake / Tail radioactivity uptake: SST2 expression None; for Correlation of radioactivity uptake with SST2 expression levels in organs: except in the kidneys
Method: (§1) Healthy female Swiss Nude-Foxn1nu mice, of 7 weeks old, were obtained from Charles River (Ecully, France). The animals were housed and cared for according to French and European regulations on animal experimentation. All procedures with animals were submitted to the Institutional Animal Care and Use Committee of Oncodesign (CNREEA Agreement N°91). Animal physical well-being was monitored on a daily basis, and animal weight was measured at least twice a week. Tumours were induced by subcutaneously injecting 1 × 10^7 AR42J cells in 200 μL of RPMI 1640 into the right flank of the mice. In order to improve cell engraftment, AR42J tumour cell implantation was performed 72 h after whole-body irradiation with a γ-source (2 Gy 60Co; BioMep, Bretenières, France).
(§2) All test substances, including the mixture of radiolabelling buffer and 0.9% NaCl solution administered in the vehicle group, were intravenously injected into the caudal vein once a week for 4 consecutive weeks. The treatment schedule was determined by the growth kinetics of the AR42J tumour model. The day of randomisation was considered as day 0. […] Tumour growth delay was estimated by calculating the median time taken to reach a tumour volume of 850 mm^3. Animals were sacrificed once their tumour volume exceeded 1500 mm^3. The study was stopped on day 83 because only 1 and 3 animals remained with non-progressing tumours in groups 3 and 4, respectively.
(§3) Twelve mice (3 in each group) were sacrificed at 96 h after the fourth administration of the test substances to evaluate at the same time toxicity and haematological parameters, and radioactivity uptake in tumours and organs after 4 cycles. The remaining 50 mice (10 in both groups 1 and 4, and 15 in both groups 2 and 3) were either sacrificed for ethical reasons on the last day of the study, on day 83. At 96 h, following the last treatment administration, individual tumours and organs of interest were collected, blotted dry, weighted, fixed in formalin, and the amount of radioactivity present in each organ was quantified using a γ-counter. The radioactivity uptake in tumour and organs was determined and expressed as MBq/g of tissue as well as percentage injected dose/g of tissue (%ID/g).

in vivo = conditions: female, Swiss Nude-Foxn1nu, mouse, in vivo, iv, total radioactivity
Method: as §1, §2, §3

[3] = test system: bone marrow, spleen, kidneys and other organs; assay: Histopathology of normal organs (treatment-related microscopic observations); assay type: in vivo, Swiss Nude-Foxn1nu mice; conditions: for Spleen, extramedullary haematopoiesis, mean score: vehicle 3.7; for Bone marrow, eosinophilic vacuolated cells, number of mice: vehicle 0
Method: Once fixed, tumours, spleen, bone marrow (femur), jejunum, colon, tail (injection site), and kidneys were processed to paraffin blocks and tissues slides produced for immunohistochemical analyses or stained with haematoxylin and eosin (H&E) or sirius red (collagen staining) for histopathological examination.
All the slides were evaluated by a board-certified veterinary pathologist (S.L.) using a light microscope (Olympus BX41). The pH2AX and SST2 signal intensities were scored using a semi-quantitative approach (H-score), by multiplying the signal intensity score (0, absent; 1, weak; 2, moderate; 3, strong) with the percentage of labelled cells. The H-score, which ranges from 0 to 300, gives the relative weight of staining in a given tumour sample. Regarding the histopathological examination, the number of mitoses was counted in the areas of tumours with the highest mitotic figures in 1 high-power field at the objective 40. The severity of fibrosis was evaluated on a classical toxicologic pathology scale ranging from 0 (absent) to 5 (severe).

kidney = conditions: human, in vivo; cited from earlier work
SST2-positive NETs = conditions: in vivo; cited from earlier work
human and rat SST2 = test system: human and rat SST2; design: method as in PMID 19910453; conditions: ref [10]; cited from earlier work
[4] = 15 MBq, Tail uptake (injection site), 15 MBq x 4, 96 h after fourth injection, mean (SEM)
[5] = 15 MBq, Tumour uptake, 15 MBq, i.v. once a week x 4, 96 h after fourth injection, mean (SEM)
[6] = 15 MBq, compared with [^177Lu]Lu-DOTA-TATE at 15 or 30 MBq, 96 h

Molecule | Kd [1] [nM] | Tumour radioactivity uptake ([2]; 15 MBq x 4) [MBq/g] | Femur radioactivity uptake ([2]; 15 MBq x 4) [MBq/g] | Spleen radioactivity uptake ([2]; 15 MBq x 4) [MBq/g] | Adrenals radioactivity uptake ([2]; 15 MBq x 4) [MBq/g] | Kidneys radioactivity uptake ([2]; 15 MBq x 4) [MBq/g] | Tail radioactivity uptake ([2]; 15 MBq x 4) [MBq/g] | Correlation of radioactivity uptake with SST2 expression levels in organs ([2]; 15 MBq) | tissue uptake at 96 h (in vivo; 15 MBq, Adrenals uptake) [%ID/g] | tissue uptake at 96 h (in vivo; 15 MBq, Femur uptake) [%ID/g] | tissue uptake at 96 h (in vivo; 15 MBq, Kidneys uptake) [%ID/g] | tissue uptake at 96 h (in vivo; 15 MBq, Spleen uptake) [%ID/g] | tissue uptake at 96 h (in vivo; [4]) [%ID/g] | tissue uptake at 96 h (in vivo; [5]) [%ID/g] | other results
C[C@@H](O)[C@H](NC(=O)[C@@H]1CSSC[C@H](NC(=O)[C@@H](Cc2ccccc2)NC(=O)CN2CCN(CC(=O)O)CCN(CC(=O)O)CCN(CC(=O)O)CC2)C(=O)N[C@@H](Cc2ccc(O)cc2)C(=O)N[C@H](Cc2c[nH]c3ccccc23)C(=O)N[C@@H](CCCCN)C(=O)N[C@@H]([C@@H](C)O)C(=O)N1)C(=O)O [[^177Lu]Lu-DOTA-TATE, metal not drawn] | 0.48 ± 0.2 | 1.0 | 0.006 | 0.0032 | 0.11 | 0.066 | 0.01 | overall well-correlated with SST2 expression levels in different organs, except in the kidneys | 0.59 | 0.034 | 0.36 | 0.018 | 0.055 | 5.6 | Tumour radioactivity uptake ([2]; 30 MBq x 4): 2.2 MBq/g; Femur radioactivity uptake ([2]; 30 MBq x 4): 0.008 MBq/g; Spleen radioactivity uptake ([2]; 30 MBq x 4): 0.006 MBq/g; Adrenals radioactivity uptake ([2]; 30 MBq x 4): 0.23 MBq/g; Kidneys radioactivity uptake ([2]; 30 MBq x 4): 0.20 MBq/g; Tail radioactivity uptake ([2]; 30 MBq x 4): 0.016 MBq/g; Correlation of radioactivity uptake with SST2 expression levels in organs ([2]; 30 MBq): overall well-correlated with SST2 expression levels in different organs, except in the kidneys; tissue uptake at 96 h (in vivo; 30 MBq, Adrenals uptake): 0.6 %ID/g; tissue uptake at 96 h (in vivo; 30 MBq, Femur uptake): 0.022 %ID/g; tissue uptake at 96 h (in vivo; 30 MBq, Kidneys uptake): 0.51 %ID/g; tissue uptake at 96 h (in vivo; 30 MBq, Spleen uptake): 0.015 %ID/g; tissue uptake at 96 h (in vivo; 30 MBq, Tail uptake (injection site), 30 MBq x 4, 96 h after fourth injection, mean (SEM)): 0.042 %ID/g; tissue uptake at 96 h (in vivo; 30 MBq, Tumour uptake, 30 MBq, i.v. once a week x 4, 96 h after fourth injection, mean (SEM)): 5.8 %ID/g; Spleen, extramedullary haematopoiesis, mean score ([3]; 30 MBq x 4, 96 h): 2.3; Bone marrow, eosinophilic vacuolated cells, number of mice ([3]; 30 MBq x 4, end of study, 11 mice examined): one animal
C[C@@H](O)[C@@H]1NC(=O)[C@H](CCCCN)NC(=O)[C@@H](Cc2ccc(NC(N)=O)cc2)NC(=O)[C@H](Cc2ccc(NC(=O)[C@@H]3CC(=O)NC(=O)N3)cc2)NC(=O)[C@H](NC(=O)[C@H](Cc2ccc(Cl)cc2)NC(=O)CN2CCN(CC(=O)O)CCN(CC(=O)O)CCN(CC(=O)O)CC2)CSSC[C@@H](C(=O)N[C@H](Cc2ccc(O)cc2)C(N)=O)NC1=O [[^177Lu]Lu-satoreotide tetraxetan, metal not drawn] ({DOTA}-[Phe(4-Cl)][dC][Phe(4-NH2)](Dihydroorotyl(S))[dPhe(4-NHCONH2)]KTC[dY]-NH2; disulfide 2-7) | 0.088 ± 0.01 | 3.5 | 0.014 | 0.013 | 0.12 | 0.51 | 0.015 | overall well-correlated with SST2 expression levels in different organs, except in the kidneys | 0.7 | 0.08 | 2.9 | 0.072 | 0.082 | 20 | Mean femur radioactivity uptake versus [^177Lu]Lu-DOTA-TATE [2, 6]: two times higher; Mean kidney radioactivity uptake versus [^177Lu]Lu-DOTA-TATE [2, 6]: up to eight times higher; Mean tumour radioactivity uptake versus [^177Lu]Lu-DOTA-TATE [2, 6]: up to three times higher; also recorded: approximately three times higher tumour uptake; Renal uptake and potential renal toxicity (kidney): limited; Safety profile (SST2-positive NETs): manageable safety profile; Bone marrow, myeloid/erythroid ratio, mean score ([3]; 15 MBq x 4, 96 h, vehicle 2.3): 3.0; Spleen, extramedullary haematopoiesis, mean score ([3]; 15 MBq x 4, 96 h): 2.3; Bone marrow, eosinophilic vacuolated cells, number of mice ([3]; 15 MBq x 4, end of study, examined 11 (DOTATATE), 7 (satoreotide)): one animal; Bone marrow, myeloid/erythroid ratio, mean score ([3]; 15 MBq x 4, end of study, vehicle 1.2): 2.7
Pasireotide |  |  |  |  |  |  |  |  |  |  |  |  |  |  | Species difference human versus rat SST2 (human and rat SST2): species dissimilarities between human and rat SST2

Reference: PMC9506113 (Pharmaceuticals, 2022)
